A protein production outcome set (Wang et al. 2014)

Assay: label from the status in PepcDB records

Row | Sequence | protein production
1 | MLNYLIFFPLISAFVVLLLNRGGVKVFSVVVSFMILALNLDTFADFLQGVSFDYNLSFKILKFFSFHVGVDSIALVLMLLSSLMIFLSFLFLKLEQKALISCIFFLEFAIMGLFSAKDGLLFYIFWEFSLLPLLYIMGVYGKDFRAGVKFFIYAFAGSILMLVALIYQAYLNYQLLNIFTFDLEIWKNNASAANFTEQLLLFGAFFIAFAIKAPLFPLHTWAPKVYANSPILVSVMLVVFKMAPFGFLLFCLPLFPDASVYFMPLIVALCIVSIVYNALIAYRAENIKELIAYSSISHLGVMILGIFSLNALGISGAVFYMFAHGIVTGTLFLMVELLYQRYHTYDISFYHSLAKKAPLFSIFFMLILLASVSLPLTVSFVGEFLILLGIAKINLFYALLAGLVIILGAIYMFAVFRKIFFMQKQSFIEGFSLRFREIVALVCIVVMIFGLGLMPNILLKPIQKDVDNLIKTMNIRAVEQNTLDFLSKIGEANVK | failed
2 | MRMVAHRFLRPQEAHMQVLVRDNNVDQALRILKKKLQREGVFREMRLREAFEKPSIKKAREKAEAIGRQRKLARKQMQREGLLPTKPRKDKLEHHHHHH | failed
3 | MSDSATEYDKLFIGGKWTKPSTSDVIEVRCPATGEYVGKVPMAAAADVDAAVAAARAAFDNGPWPSTPPHERAAVIAAAVKMLAERKDLFTKLLAAETGQPPTIIETMHWMGSMGAMNYFAGAADKVTWTETRTGSYGQSIVSREPVGVVGAIVAWNVPLFLAVNKIAPALLAGCTIVLKPAAETPLTANALAEVFAEVGLPEGVLSVVPGGIETGQALTSNPDIDMFTFTGSSAVGREVGRRAAEMLKPCTLELGGKSAAIILEDVDLAAAIPMMVFSGVMNAGQGCVNQTRILAPRSRYDEIVAAVTNFVTALPVGPPSDPAAQIGPLISEKQRTRVEGYIAKGIEEGARLVCGGGRPEGLDNGFFIQPTVFADVDNKMTIAQEEIFGPVLAIIPYDTEEDAIAIANDSVYGLAGSVWTTDVPKGIKISQQIRTGTYGINWYAFDPGSPFGGYKNSGIGRENGPEGVEHFTQQKSVLLPMGYTVA | not failed
4 | MASPDGSGSESFRTRRRRNRARFALAAVLTFILVAVGVLALVFYELRPVSLKIAVGPGGGDDLKLVQALAQSFARDRAAVRLVPLVTGGATPSIEAFRDHKADLAVTRADLDLPADAQAVAVLRKNVVVLWAPSSAGKGKKSIKTITDLAGRRVGVIGRTPANVKLFDIILAESGVAPDKVQKEQFATGQLAEMARDPSLDAFLAVGPLDSKITGEAIAATAKARGEPRFLPVDVGDAIAKKYPIYDSEEIPGSIFSTQPARPEDKVDTVSVNHLIVARQSLSSVTVTKLTRQIFAARQQIAREMPLAGKIEAPDTEKDAALPAHRGAAAFIDGTDRTFMERNSDYIWGLVLLLSGLGSAGAWFRSYLTRDEREAGAKMRDRALAMVAKARKAETLEALDALQHEIDKILRDTLDCYDDGAIEDLEPFSLVLEQFHHAVMDRRAALSASGPGLIPVDPATLPAAHA | failed
5 | MAQAQTQGQEEEQKKKILIVVTHGPEDLDRTYAPLFMASISASMEYETSVFFMIKGPKLLDKKWQEEERKKGGNPFIHFFDMAKENGVKMYVCVQSLKDMCHMKEDDVVEGIELVGGSTLIDLTLEADRTLFF | not failed
6 | SPLPVALQTRLAKRGILKHLEPEPEEEIIAEDYDDDPVDYEATRLEGLPPSWYKVFDPSCGLPYYWNADTDLVSWLSPHDPNSVVTKSAKKLRSSNADAEEKLDRSHDKSDRGHDKSDRSHEKLDRGHDKSDRGHDKSDRDRERGYDKVDRERERDRERDRDRGYDKADREEGKERRHHRREELAPYPKSKKAVSRKDEELDPMDPSSYSDAPRGTWSTGLPKRNEAKTGADTTAAGPLFQQRPYPSPGAVLRANAEASRTKQQD | not failed
7 | MDAPTSQRYTAKARWLHWIMAALIVLAYTLILSRTQFGKGSEYRTLVVQSHFWVGIVVLVLAFFRVAERRRQRPPGITPPLEGVLRAAATLSHYALYAFLFTQPLLGLLTVMVEKGSLPIPLTDLQIPWPLPISDHTAEYFEDLHKLLGKIFYYVIGLHVVAALWHHIVRKDNTLKRML | failed
8 | MAIVGTILFAFYSVAIAAAWFFFGQNQTILAIAIVGSVVLVGVQYKVGKWMALRSVGAEDMDEQEFPRIHRRVESLSRDMGIKKPTLKVANMGVPNAFAVGRKGNGTVVVSRELIDILEHEELDGVLAHELSHIANRDVVTMQLGQGIASIVGIVAQYIVLFSGDNDLADFFLAIVVGNLVQFLVTLFVLAISRYREYVADADARRAIGTGEPLARALEKISQGNEQAAQQQRQRTSRGRGRRQRGQRNDDGLDQQVSALCISSPDTSVLQKLVSTHPPTEKRIQRLRS | failed
9 | MRLDKFIAQQLGVSRAIAGREIRGNRVTVDGEIVRNAAFKLLPEHDVAYDGNPLAQQHGPRYFMLNKPQGYVCSTDDPDHPTVLYFLDEPVAWKLHAAGRLDIDTTGLVLMTDDGQWSHRITSPRHHCEKTYLVTLESPVADDTAEQFAKGVQLHNEKDLTKPAVLEVITPTQVRLTISEGRYHQVKRMFAAVGNHVVELHRERIGGITLDADLAPGEYRPLTEEEIASVV | not failed
10 | MVDLVAKLKRGAPMLALLIVSTVLAGCSSSTAIKGSKDEGLRLARLLRDQGRVEAATEVYARLDSRDALKGAEMLEYASVAALARSPQQTLELYGRARQALGGDTNKMTPGEALAVCLGMGRTQLALGRNAMAQTDFACALKAQPNDAGALNGMGVVMDASGKHAEARQLFEKALQVNPADVAALNNLALSWLASGNTDKAISLLRSVDESNATSRLNLALAYLSGGRDDEARSALATIAQPQRIDGLMDELNQRLQQMQKDKSRGEALLLSSRQRLQLSAPE | failed
11 | MRDFLKLLKKHDELKIIDTPLEVDLEIAHLAYIEAKKPNGGKALLFTQPIRKEHDQIKTFGMPVLMNAFGSFKRLDLLLKTPIESLQQRMQAFLHFNAPKNFTEGLKVLKDLWDLRHIFPKKTTRPKDLIIKQDKEVNLLDLPVLKTWEKDGGAFITMGQVYTQSLDHQKKNLGMYRLQVYDKNHLGLHWQIHKDSQLFFHEYAKAKVKMPVSIAIGGDLLYTWCATAPLPYGIYELMLYGFMRGKKARVMPCLSNSLSVPSDCDIVIEGFVDCEKLELEGPFGDHTGYYTPIEPYPVLEVKTISYKKDSIYLATVVGKPPLEDKYMGYLTERLFLPLLQMNAPNLIEYYMPENGVFHNLILAKIHTRYNAHAKQVMHAFWGVGQMSFVKHAIFVNEDAPNLRDTNAIIEYILENFSKENALISQGVCDALDHASPEYAMGGKLGIDATSKSNTPYPTLLNDSALLALLQDKMQNIVLLKQYYPHTRNPICVISVEKKDKSVIELAKNLLGFEEHLRIVIFVEHASNDLNNPYMLLWRIVNNIDARRDILTSKHCFFIDATNKGVMDKHFREWPTETNCSMEVIENLKKKGLLKDFETLNQKFHLTHSFSTHKEDL | failed
12 | MLKNLRIRKFEPEEEYVYFTYSIKNDKREKSKELIREYTTLLQKAIDYLWNLTKIQVRKKNGNYKITLPKKREVYKPLREELEKINHLASHYVDKAINDAFSILKSWRKRAIKGRASIEKPRVKKAYVRIKTTLRKVVGESVRITVRPHEYITFSWSKSWFSRRVRELELGEPIIKEEKVYLPFRYKLPWATPVDFLAIDSNLYTLDAYDGEKFVTISLKQLYSLKYSMEVKRAKVQSFASKHTKRGRELMRKYSHRERNRVLDFVHKFVNTLLDLYPMTFFAVEKLNKESMFKDANDSLSRKISRTVWGSIHRVLKYKAPLYGSFVKEVNPRFTSRSCPRCGFVSRKVGKTFECERCGFKLDRQLNASLNIYLKMCGFPHIREIARVWVGVIPLMGRRGMNGFPRDFGEAQGLRIDIEYHEIPLEHHHHHH | not failed
13 | MKFYKKLIECIILLLFFVVFTLFIKYYFKPFLSIVILTILCSPIYNLLSKHKVFGDRINAVLSIIVINVMIFLAIFLIGNFIAQKLNIYLQHYHNVLDINKLPIIGESNVNILLNKINVFVDKLFNADFFKKSAVYTTDGILTYFVSIMSVYFILVDKYDIVNLAEKLFTKNKVHILMKKFSDIKSLLRVETFLVLITTIQTIIGFFVLGIEDCFMLGIICGILDILPYVGTIIIFIPLIIYKMYEKNYVTIFGLIALYIFLQVSRQIMETNFMSSKLKIHPLIILISVYIGIKAFGIIGLFIAPIYVITAKEIILSS | failed
14 | MFTRRGDQGETDLANRARVGKDSPVVEVQGTIDELNSFIGYALVLSRWDDIRNDLFRIQNDLFVLGEDVSTGGKGRTVTREMIDYLEARVKEMKAEIGKIELFVVPGGSIESASLHMARAVSRRLERRIVAASKLTEINKNVLIYANRLSSILFMHALLSNKRLNIPEKIWSIHRVS | not failed
15 | MQVIKQKLTATCAQLTGYLHQPDTNAHQTNLPAIIIVPGGSYTHIPVAQAESLAMAFAGHGYQAFYLEYTLLTDQQPLGLAPVLDLGRAVNLLRQHAAEWHIDPQQITPAGFSVGGHIVALYNDYWATRVATELNVTPAMLKPNNVVLGYPVISPLLGFPKDDATLATWTPTPNELAADQHVNSDNQPTFIWTTADDPIVPATNTLAYATALATAKIPYELHVFKHGPHGLALANAQTAWKPDANQPHVAHWLTLALEWLADNR | not failed
16 | EQQADGTWLMDGWISIRKASNLLEHDLVDEAERYSTLGGYLLWQFGYIPAAGEQITVDGLIFEIVSVNKHNIGKVRVHRTQ | not failed
17 | MIPVTSFRGKKVALFGLGGSGLVTARALVAGGAAVVAFDDNPDSVAKAQAEGIATADLHTIDWSSFSSFVLAPGVPLTHPKPHWSVDLAKAAGVEVIGDIELFIRERRVHAPDCPFIAITGTNGKSTTTALIAHILQSSGRDTQLGGNIGTAVLSLDPPKAQRFYVVECSSYQIDLAPTINPTAGILLNLTPDHLDRHGTMQHYADVKERLVAGSGTAIVGVDDSHSTLIADRIERAGVKVERISKRNVVSEGLYAEGSQILRAHGGTSSLLVDLDGIQTLRGSHNAQNAAAAIAACLAVGVSEEEIRAGLKSFPGLKHRMQPVGRRGNVTFVNDSKATNADAAAPALSSFDRIYWIAGGLPKAGGITSLSPLFPRIAKAYLIGEAAAEFAATLGEAVPYEISGTLDKAVQHAAADAEKDATAGNVVMLSPACASFDQYKNFEIRGDSFVAQVAALEGMTMLVHSGKGG | failed
18 | NIPEIENANLKPALKDSVLPDGFYSTTNHPTHVKVNDEWIEVANPKMDAVIVVYPEEKRAETKVIRKVKKGDFVLIGHNGIRVMPPEKSREAGQLFEFMNSEVSSEKPKEAIIKRIAKEMHEIREEYKKTGTGGIAIVGGPAIIHTGGGPALAKMVELGYIQAILAGNALATHDIESALYGTSLGVNIKTAKPVTGGHKHHIYAINAINDAGNIKNAVESGVLKEGIMYQCIKNNIPYVLAGSIRDDGPIPDVITDSMVAQDKMRTTVMDKKMVIMLSTLLHSVATGNLMPSYIKTVCVDIQPSTVTKLMDRGTSQAIGVVTDVGVFLVLLLKELERLELQE | not failed
19 | GSSGSSGMDEDVLTTLKILIIGESGVGKSSLLLRFTDDTFDPELAATIGVDFKVKTISVDGNKAKLAIWDTAGQERFRTLTPSYYRGAQGVILVYDVTRRDTFVKLDNWLNELETYCTRNDIVNMLVGNKIDKENREVDRNEGLKFARKHSMLFIEASAKTCDGVQCAFEELVEKIIQTPGLWESENQNSGPSSG | not failed
20 | MNGVLEQHWTGEGRRLRAAPAVLCLLLGTALAGCGDMNRFQTAAAPPTVAMPKPKPAVAQTPATEKEHERILASYGGTYDDPRLESLVTKTVDRLVAASDRPDQGYRITILNSGAVNAFALPNGQLYVTRGLLALASDTSELSSVLSHEMAHVLSKHAAMREDQARQAAIVTRVVTDMSNDPDLTALALAKTKLTMASFSRNQEFEADGIGVGISARAHFDPYGAARFLSAMERNAELKAGKTSLDPRAQDFTSSHPATPERVQNAQTIARQYVAPEGGERDRESYLAAIDNLVYGEDPERGFCPRPAFPASEARLHLPGAGQFHARQHRAGGDRRARRRLAGDALRRGAGAGRAVARRLPQFGLDGRRREGVHGRHHHQRLPGRVRHRQGRPVAVQGLCAAFRQRRLPLHLRGTAEVDRERAQCARDRQLVPSPDPRRDPGRPPAAHQGDHRAARRHRGIALPPHGRRRSPRRALPRAQRPRSQRAGEGEGSREGRGGLTLREARVIPGRLARTRDLEPRRHCRRVGKA | failed
